Measured values published in a protein production outcome set (Wang et al. 2014).

Test: label from the status in PepcDB records

MEAVDLAFANYAERFARSCKGDGWRRLVERAIRLYLTPVLGKKALPAINRTDVVSVFDNMPADQVANRRNVFAVLRRLFRWAVSRGDLDRSLEHHHHHH
protein production: failed

MKRWQMEWLLVSVALVWGANYTIGKYGVAFMSSIQFNSLRFLVASPVLLLITFLMERSLRIERKDWLRLVAVGIVGTTMYQTMFMLSVKYTSATNASLLIAMSPIFTGILAVLHKQERFSMKVQIGSIVAFIGAAFVLLTGHTGGATYEYAWLGNIIGLVAAIAWGWYPILAQPLITKYSAMRVTSWSTLIGIVPLVIYCLFNVNTLTWPVDTPSWGSLAYSIVFATIFGLAMWYVGISQIGSTKVMVYMYLVPLFAVIFAAVIIGEQINMMQLVGGLIIFIGLYVVKKGGMKKPALNLKKVS
protein production: failed

RPQTTDNWQNTEIEGIDIMLAVDVSTSMLAEDLKPNRLEAAKQVASEFINGRPNDNIGLTIFAGESFTQCPLTVDHGVLLNLFNSIKGDIAQRGLIEDGTAIGMGIANAVTRLKDSKAKSKVIILLTDGSNNRGDISPLTAAEIAKQFGIRIYTIGVGTNGTAPYPMQTYAGTQYVNVPVEIDEKTLTEIAGTTNGNYFRATSNSKLKEVYQEIDKLEKTKL
protein production: failed

MATAEAQIGVNRNLQKQDLSNLDVSKLTPLSPEVISRQATINIGTIGHVAHGKSTVVKAISGVQTVRFKNELERNITIKLERLSEKKIKNLLTSKQQRQQYEIKQRSMLRHLAELRRHSRFRRLCTKPASSSMPASTSSVDRRTTRRSTSQTSLSPSNSSGYGSVFGCEEHDVDKIPSLNGFAKLKRRRSSCVGAPTPNSKRSKNNMGVIAKRPPKGEYVVERIECVEMDQYQPVFFVKWLGYHDSENTWESLANVADCAEMEKFVERHQQLYEIYIAKITTELEKQLEALPLMENITVAEVDAYEPLNLQIDLILLAQYRAAGSRSQREPQKIGERALKSMQIKRAQFVRRKQLADLALFEKRMNHVEKPSPPIRVENNIDLDTIDSNFMYIHDNIIGKDVPKPEAGIVGCKCTEDTEECTASTKCCARFAGELFAYERSTRRLRLRPGSAIYECNSRCSCDSSCSNRLVQHGRQVPLVLFKTANGSGWGVRAATALRKGEFVCEYIGEIITSDEANERGKAYDDNGRTYLFDLDYNTAQDSEYTIDAANYGNISHFINHSCDPNLAVFPCWIEHLNVALPHLVFFTLRPIKAGEELSFDYIRADNEDVPYENLSTAVRVECRCGADNCRKVLF
protein production: failed

LNLPYDEHADAWTQVKKALAAGKRTHKPTLLVFGANWCTDCRALDKSLRNQKNTALIAKHFEVVKIDVGNFDRNLELSQAYGDPIQDGIPAVVVVNSDGKVRYTTKGGELANARKMSDQGIYDFFAKITE
protein production: not failed

DKIGIERFLFPLGLYSYFRWMKQYERDRGLFLSLLLSLLYESTHNFLSVIFSSITGDNFVLQY
protein production: failed

IKILKNFDEAIIVDAASLDPESLYQRTYAGKMTFGRVSDLGQFIRESEPEPDVRKSKGSMFSQAMKKWVQGNTDEAQEELAWKIAKMIVSDIMQQAQYDQPLEKSTKL
protein production: failed

MLISIAFLLVLYLLNYSSFRMLKSFLTLKKISQYAYLWFFILLSIGEAAFVFYRNIMPSHLFVLTSACSFVSFIIFILSLSFYGFSYSIEKIDFLHSRRKSLKNFLKLGFYLALLGYFWRGFYEGLARPKIKETPIYLDKLDKELKIILLTDMHVGSLLQKDFVDYIVEEVNQKEVDMVLIGGDLVDESIEKVKSFLLPLNNLKSTHGTFYVPGNHEYYHGIEPILSFLDTLNLTILGNECVHLGGINLCGVYDYFARKRQNFAPDIDKALKKRNESKPTILLAHQPKQIRSLKESHSVDLVLSGHTHAGQIFPFSLLVKLAQTYLHGLYKHSPTTQIYVSSGAGYWGIPLRFLAPSEIAYLRLLPKNQA
protein production: failed

MGMGSNGELKYEISQNAYIKLVLHSLRHKTAAVNGVLVGRISPKDDGVVEISDSVPLFHSNLALLPPLEISLIMIEEHYVAQGLSIVGYFHANERFDDVELCGVAKNIGDHISRYFPQAPILLLNNKKLEALSKGKERSPVMQLCVKDASKNWRVVGADGGSKLLLKEPSANVVLSDYISSEKWKDVTDVDDHLDDVTKDWLNPGLFN
protein production: failed

MFHVSFRYIFGLPPLILVLLPVASSDCDIEGKDGKQYESVLMVSIDQLLDSMKEIGSNCLNNEFNFFKRHICDANKEGMFLFRAARKLRQFLKMNSTGDFDLHLLKVSEGTTILLNCTGQVKGRKPAALGEAQPTKSLEENKSLKEQKKLNDLCFLKRLLQEIKTCWNKILMGTKEH
protein production: failed

MSRGLLEACIEFIRETPAGDALRIVAYEFTFKRILLELKAALERGVDVRIVYHATTANEKAIADAKLPENSKGVQILFKRTRPQTPHNKFIVRLKKGKTPVSVWTGSTNFTPSGFLGQTNVGHKVTDGDIAKIYLQLWEGLKADPDDFDATQLEHHHHHH
protein production: not failed
